Among the data in publication PMC2944812 are fold increase of HAGG binding to activated platelets with C1q against without C1q values, retold here.

This assay addresses Human C1q (human) (UniProt P02745). The assay can be described thus: flow cytometry on cells; Washed TRAP-activated human platelets incubated with or without purified C1q (10 ug/mL), washed, then HAGG (0-10 ug/mL) for 30 min at RT; HAGG detected with rabbit anti-human IgG (Fab2)-FITC; C1q held on the platelet surface. Background: Flow cytometry measures light scatter and fluorescence of single cells or particles in a stream.
Sequence of UniProt P02745 (P02745 23-245, chain 1 of 3): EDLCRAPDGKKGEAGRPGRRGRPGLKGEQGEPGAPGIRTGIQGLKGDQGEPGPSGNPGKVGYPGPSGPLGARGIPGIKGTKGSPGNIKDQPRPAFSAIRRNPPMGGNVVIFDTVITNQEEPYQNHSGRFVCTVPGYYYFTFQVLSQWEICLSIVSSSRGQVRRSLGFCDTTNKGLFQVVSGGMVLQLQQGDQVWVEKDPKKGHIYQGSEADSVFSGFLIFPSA
Sequence of UniProt P02745 (P02746 28-253, chain 2 of 3, further chain): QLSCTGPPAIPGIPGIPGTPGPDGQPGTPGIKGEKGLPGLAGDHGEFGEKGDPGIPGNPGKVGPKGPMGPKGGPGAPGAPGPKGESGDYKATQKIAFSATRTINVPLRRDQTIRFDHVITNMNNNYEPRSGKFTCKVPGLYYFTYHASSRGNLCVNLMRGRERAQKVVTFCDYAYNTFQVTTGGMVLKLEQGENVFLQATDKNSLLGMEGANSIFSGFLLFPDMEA
Sequence of UniProt P02745 (P02747 29-245, chain 3 of 3, further chain): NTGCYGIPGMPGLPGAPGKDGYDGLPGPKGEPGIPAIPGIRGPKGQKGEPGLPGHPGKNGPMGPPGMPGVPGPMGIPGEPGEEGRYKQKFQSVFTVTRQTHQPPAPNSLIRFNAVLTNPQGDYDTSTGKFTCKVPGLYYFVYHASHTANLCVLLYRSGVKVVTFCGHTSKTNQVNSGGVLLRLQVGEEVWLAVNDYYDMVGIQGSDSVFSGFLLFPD

“heat-aggregated gamma globulin (natural protein)” registered a fold increase of HAGG binding to activated platelets with C1q against without C1q of 2 fold.
